Experiments:
Test in all cases: FP competition (Ki)
GAB3b = biological target: T1, GAB3b (Homo sapiens (Human), UniProt Q8WWW8)
T1 chain: KPQRKSRPPPLDLRNLS

APBA2 = biological target: T2, APBA2 (Homo sapiens (Human), UniProt Q99767)
T2 chain: RHEARPKSLNLL

PDE4B = biological target: T3, PDE4B (Homo sapiens (Human), UniProt Q07343)
T3 chain: EGDGISRPTTLPLTTLPS

DCX = biological target: T4, DCX (Mus musculus (Mouse), UniProt O88809)
T4 chain: SLRKHKVDLYLPLSL

JAZF1 = biological target: T5, JAZF1 (Homo sapiens (Human), UniProt Q86VZ6)
T5 chain: SLKKKIQPKLSLTLS

MYO9B = biological target: T6, MYO9B (Homo sapiens (Human), UniProt Q13459)
T6 chain: LERPTSLALD

RHDF1 = biological target: T7, RHDF1 (Homo sapiens (Human), UniProt Q96CC6)
T7 chain: SLQRKKPPWLKLDIPS

AAKG2 = biological target: T8, AAKG2 (Homo sapiens (Human), UniProt Q9UGJ0)
T8 chain: SQKRRSLRVHIP

CCNT2 = biological target: T9, CCNT2 (Homo sapiens (Human), UniProt O60583)
T9 chain: KKEKSGSLKLRIPIP

DOCK7 = biological target: T10, DOCK7 (Homo sapiens (Human), UniProt Q96N67)
T10 chain: RSAVRPASLNLNRSR

DOCK5 = biological target: T11, DOCK5 (Homo sapiens (Human), UniProt Q9H7D0)
T11 chain: KAQRPKSLQLM

IRS1 = biological target: T12, IRS1 (Homo sapiens (Human), UniProt P35568)
T12 chain: RLARPTRLSL

KSR2 = biological target: T13, KSR2 (Homo sapiens (Human), UniProt Q6VAB6)
T13 chain: KKKSKPLNLKI

Kd (GAB3b): 13.2 µM | Kd (APBA2): 10.8 µM | Kd (PDE4B): 16.4 µM | Kd (DCX): 16.7 µM | Kd (JAZF1): > 100 µM | Kd (MYO9B): 15.9 µM | Kd (RHDF1): > 100 µM | Kd (AAKG2): > 100 µM | Kd (CCNT2): > 100 µM | Kd (DOCK7): 7.3 µM | Kd (DOCK5): 5.1 µM | Kd (IRS1): 3.5 µM | Kd (KSR2): 24.7 µM
B1: JNK1 (protein)
chain: DNNFYSVEIGDSTFTVLKRYQNLKPIGSGAQGIVCAAYDAILERNVAIKKLSRPFQNQTHAKRAYRELVLMKCVNHKNIIGLLNVFTPQKSLEEFQDVYIVMELMDANLCQVIQMELDHERMSYLLYQMLCGIKHLHSAGIIHRDLKPSNIVVKSDCTLKILDFGLARTAGTSFMMTPYVVTRYYRAPEVILGMGYKENVDLWSVGCIMGEMVCHKILFPGRDYIDQWNKVIEQLGTPCPEFMKKLQPTVRTYVENRPKYAGYSFEKLFPDVLFPADSEHNKLKASQARDLLSKMLVIDASKRISVDEALQHPYINVWYDPSEAEAPPPKIPDKQLDEREHTIEEWKELIYKEVMDLE
